Measured values as given in paper PMC5599688.
One block for each substance: values may come before it.

Legend:
[1] = biological target: calnexin in tsA-201 cells (not stated (endogenous human in tsA-201, or transfected mouse cDNA)) (UniProt P27824)
[2] = biological target: calnexin (rat brain) (rat (endogenous in brain)) (UniProt P35565); assay: co-IP; 10% rat brain homogenate (also NEC versus GAERS brain) in 50 mM TrisHCl pH 8.0, 300 mM NaCl, 0.5% Triton X100, 0.5% DOC; rabbit polyclonal anti-CNX overnight at 4 °C, Sepharose G beads; blotted for Cav3.2; signal normalised to precipitated calnexin
[3] = biological target: GFP-tagged III-IV linker of rat Cav3.2 without exon 25, GAERS mutation R1584P (rat); assay: co-IP; tsA-201 cells 72 h after transfection, NP40 lysis buffer; precipitated with anti-GFP (GFP-tagged Cav3.2 regions), blotted with anti-mCherry; densitometry normalised to expression levels
[4] = biological target: GFP-tagged III-IV linker of human Cav3.2 with R1573P (human) (UniProt O95180); assay: as above
[5] = biological target: GFP-tagged III-IV linker of rat Cav3.2 with exon 25, GAERS mutation R1584P (rat); assay: as above
[6] = biological target: GFP-tagged III-IV linker of rat Cav3.2 without exon 25, wild type (rat); assay: as above

Chain of UniProt P27824 (P27824 21-592): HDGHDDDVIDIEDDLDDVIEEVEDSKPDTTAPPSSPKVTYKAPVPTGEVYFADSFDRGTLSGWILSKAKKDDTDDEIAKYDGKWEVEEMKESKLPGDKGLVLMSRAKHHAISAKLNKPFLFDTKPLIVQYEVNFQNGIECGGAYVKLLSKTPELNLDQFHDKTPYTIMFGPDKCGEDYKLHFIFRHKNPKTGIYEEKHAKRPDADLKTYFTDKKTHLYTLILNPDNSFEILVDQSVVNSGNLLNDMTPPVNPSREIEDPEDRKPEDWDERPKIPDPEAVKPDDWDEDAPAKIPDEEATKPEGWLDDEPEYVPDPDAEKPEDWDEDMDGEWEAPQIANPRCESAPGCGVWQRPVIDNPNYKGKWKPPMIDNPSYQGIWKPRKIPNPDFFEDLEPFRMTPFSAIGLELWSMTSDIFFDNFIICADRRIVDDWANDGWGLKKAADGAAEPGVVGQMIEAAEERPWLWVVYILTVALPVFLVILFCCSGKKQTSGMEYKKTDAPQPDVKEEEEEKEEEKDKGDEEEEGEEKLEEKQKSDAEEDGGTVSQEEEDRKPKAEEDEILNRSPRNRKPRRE
Chain of UniProt P35565 (P35565 21-591): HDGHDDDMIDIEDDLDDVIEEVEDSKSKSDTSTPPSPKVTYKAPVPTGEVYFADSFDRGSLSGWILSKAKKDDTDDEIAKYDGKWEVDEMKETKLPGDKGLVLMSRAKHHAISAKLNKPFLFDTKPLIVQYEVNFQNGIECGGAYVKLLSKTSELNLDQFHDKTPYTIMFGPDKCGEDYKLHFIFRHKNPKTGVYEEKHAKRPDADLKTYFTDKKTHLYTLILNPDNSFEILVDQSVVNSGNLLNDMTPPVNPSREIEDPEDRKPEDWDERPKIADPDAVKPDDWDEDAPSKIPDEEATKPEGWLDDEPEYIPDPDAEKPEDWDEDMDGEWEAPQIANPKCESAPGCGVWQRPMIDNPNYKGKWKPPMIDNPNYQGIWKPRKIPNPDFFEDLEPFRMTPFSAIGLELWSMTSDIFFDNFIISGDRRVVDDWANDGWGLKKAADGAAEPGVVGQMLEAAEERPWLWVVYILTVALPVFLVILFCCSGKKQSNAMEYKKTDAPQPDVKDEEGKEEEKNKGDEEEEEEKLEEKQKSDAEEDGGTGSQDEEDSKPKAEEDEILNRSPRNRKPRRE
Chain of UniProt O95180 (O95180 whole entry R1573P): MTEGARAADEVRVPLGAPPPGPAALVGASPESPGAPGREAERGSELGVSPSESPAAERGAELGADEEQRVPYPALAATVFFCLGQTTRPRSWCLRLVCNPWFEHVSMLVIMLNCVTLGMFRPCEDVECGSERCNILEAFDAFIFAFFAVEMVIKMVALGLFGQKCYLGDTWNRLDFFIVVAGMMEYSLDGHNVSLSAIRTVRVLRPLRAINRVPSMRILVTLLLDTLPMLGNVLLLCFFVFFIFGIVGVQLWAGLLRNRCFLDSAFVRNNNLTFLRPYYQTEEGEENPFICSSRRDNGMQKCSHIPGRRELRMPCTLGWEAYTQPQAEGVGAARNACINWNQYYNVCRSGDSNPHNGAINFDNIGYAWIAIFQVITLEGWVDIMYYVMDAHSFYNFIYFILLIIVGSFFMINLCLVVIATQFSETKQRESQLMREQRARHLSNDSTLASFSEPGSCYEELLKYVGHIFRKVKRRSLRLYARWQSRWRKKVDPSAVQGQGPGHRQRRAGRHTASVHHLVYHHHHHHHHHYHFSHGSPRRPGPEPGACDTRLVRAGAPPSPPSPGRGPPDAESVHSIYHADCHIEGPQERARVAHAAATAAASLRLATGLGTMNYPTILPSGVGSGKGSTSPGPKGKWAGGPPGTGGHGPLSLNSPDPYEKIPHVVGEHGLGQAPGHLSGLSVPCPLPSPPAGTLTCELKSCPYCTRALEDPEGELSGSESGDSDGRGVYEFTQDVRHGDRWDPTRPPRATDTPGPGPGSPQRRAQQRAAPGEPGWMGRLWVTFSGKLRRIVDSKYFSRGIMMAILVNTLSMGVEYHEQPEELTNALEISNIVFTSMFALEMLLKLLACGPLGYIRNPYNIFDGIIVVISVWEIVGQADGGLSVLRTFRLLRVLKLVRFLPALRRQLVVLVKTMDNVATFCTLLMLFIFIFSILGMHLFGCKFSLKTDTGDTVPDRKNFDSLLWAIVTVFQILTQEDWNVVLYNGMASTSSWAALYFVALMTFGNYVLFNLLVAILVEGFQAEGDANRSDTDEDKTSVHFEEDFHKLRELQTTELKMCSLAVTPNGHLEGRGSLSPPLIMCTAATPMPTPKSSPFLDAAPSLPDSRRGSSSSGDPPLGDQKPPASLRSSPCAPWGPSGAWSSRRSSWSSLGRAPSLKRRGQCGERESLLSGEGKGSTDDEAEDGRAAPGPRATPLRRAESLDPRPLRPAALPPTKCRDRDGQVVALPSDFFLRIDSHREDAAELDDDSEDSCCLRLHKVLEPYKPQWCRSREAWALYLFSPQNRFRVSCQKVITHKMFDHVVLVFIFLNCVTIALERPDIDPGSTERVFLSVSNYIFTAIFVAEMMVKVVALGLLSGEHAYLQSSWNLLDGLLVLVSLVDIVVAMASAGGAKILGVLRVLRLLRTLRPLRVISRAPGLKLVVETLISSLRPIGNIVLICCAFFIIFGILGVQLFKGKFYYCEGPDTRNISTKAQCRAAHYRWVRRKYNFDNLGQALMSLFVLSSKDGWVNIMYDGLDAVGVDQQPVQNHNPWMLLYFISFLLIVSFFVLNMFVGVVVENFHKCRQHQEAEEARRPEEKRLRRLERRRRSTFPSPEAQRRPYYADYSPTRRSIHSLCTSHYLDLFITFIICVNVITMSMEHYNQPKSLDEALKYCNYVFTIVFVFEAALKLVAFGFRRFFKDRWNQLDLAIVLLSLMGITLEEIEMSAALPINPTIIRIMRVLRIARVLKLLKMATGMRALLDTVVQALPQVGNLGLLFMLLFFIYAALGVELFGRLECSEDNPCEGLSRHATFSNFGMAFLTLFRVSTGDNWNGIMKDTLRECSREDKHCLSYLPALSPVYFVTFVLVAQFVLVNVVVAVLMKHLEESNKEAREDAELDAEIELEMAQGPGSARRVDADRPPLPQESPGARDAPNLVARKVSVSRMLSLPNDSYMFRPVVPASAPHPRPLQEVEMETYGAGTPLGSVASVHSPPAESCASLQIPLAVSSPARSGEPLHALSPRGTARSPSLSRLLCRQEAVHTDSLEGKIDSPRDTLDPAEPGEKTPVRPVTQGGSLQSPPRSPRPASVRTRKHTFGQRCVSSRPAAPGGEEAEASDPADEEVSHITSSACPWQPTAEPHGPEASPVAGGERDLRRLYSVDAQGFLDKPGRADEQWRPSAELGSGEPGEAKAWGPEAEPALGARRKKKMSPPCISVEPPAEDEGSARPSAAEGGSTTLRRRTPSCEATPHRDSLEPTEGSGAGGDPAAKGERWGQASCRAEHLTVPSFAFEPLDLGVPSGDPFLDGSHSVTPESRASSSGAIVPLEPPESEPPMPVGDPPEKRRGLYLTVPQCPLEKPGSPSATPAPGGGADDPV

mean peak Ba2+ current density at −20 mV, tsA-201 cells expressing HA-hCav3.2 with the soluble calnexin C-tail CNX^CD against control cells (increase) [1]: 76%
surface expression of HA-tagged Cav3.2 by immunostaining, tsA-201 cells expressing the calnexin C-tail CNX^CD against control cells (increase) [1]: 30%
Substance: HA-tagged human Cav3.2 channel, O95180 1-2353

decrease of Cav3.2 co-immunoprecipitated with calnexin, GAERS against NEC brain [2]: 42%
Substance: Cav3.2 T-type calcium channel of GAERS brain (R1584P), Q9EQ60 1-2359

additional decrease of binding (reference unclear: printed as against wild-type rIII-IV (+25)) [3]: 69%
decrease of co-immunoprecipitated calnexin C-tail against the wild-type III-IV linker [4]: 70%
decrease of binding against wild-type rIII-IV (+25) [5]: 82%
decrease of binding against wild-type rIII-IV (+25) [6]: 75%
Substance: mCherry-tagged calnexin lacking the luminal domain (CNX^BD) (from UniProt P35564 483-591) (domain or fragment)
